Measured values taken from patent US20190169286A1 (Chugai, published 2019).

Tests used:
human IL-8 [1] = target: T1, human IL-8 (human, UniProt P10145 23-99, limits assumed); assay: SPR Biacore T200, Protein A/G capture, pH 5.8, 37C;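 also: antibodies captured by Protein A/G amine-coupled onto a CM4 sensor chip, with kinetic parameters derived using Biacore T200 Evaluation Software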
T1 construct: also called hIL-8; hIL8
Method: (§1) An appropriate amount of Protein A/G (PIERCE) was immobilized onto the Sensor chip CM4 (GE Healthcare) by the amine coupling method and the antibodies of interest were captured. […] To regenerate the sensor chip, 25 mM NaOH and 10 mM glycine-HCl (pH 1.5) were used. […] The BIACORE T200 Evaluation Software (GE Healthcare) was used to calculate each parameter.

human IL-8 [2] = target: T1, human IL-8; assay: SPR IL-8 binding level per 1000 RU captured Ab, pH 7.4, 40C; 1 week 50C in PBS vs initial
human IL-8 [3] = target: T1, human IL-8; assay: SPR Biacore T200, Protein A/G capture, pH 7.4, 40C;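 also: antibodies captured via Protein A/G, which was amine-coupled to a CM4 sensor chip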
Method: as §1

T1 sequence (P10145 23-99 limits assumed): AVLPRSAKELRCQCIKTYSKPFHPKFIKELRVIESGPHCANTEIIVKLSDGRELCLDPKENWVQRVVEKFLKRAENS

B1: H1040/L0442 (antibody, human IgG1, kappa, name in Kabat numbering, V domains shown)
VH: QVQLVESGGGLVQPGGSLRLSCAASGFTFSEYYLSWVRQAPGKGLEWVGLIRNKDNHHHPEYSASVKGRFTISRDDSKNSLYLTMSDLKTEDTAVYYCARENHRYDVELAYWGQGTLVTVSS
VL: DIQMTQSPSSLSASVGDRVTITCRASEIIYEYLAWYQQKPGKAPKLLIYKAKTHADGVPSRFSGSGSGTDFTFTISSLQPEDIATYYCKHHFGFPRTFGQGTKVEIKR
notes: L442 = L395 + S31E
In the case of B1, the Kd (human IL-8 [1]) is reported as 140 nM, the koff (human IL-8 [1]) is reported as 0.21 s⁻¹ and the “Ratio of IL-8 Binding Amount (Thermal Acceleration/Initial)” value (human IL-8 [2]) is reported as 0.49. It also gave a Kd (human IL-8 [3]) of 0.34 nM.
